Key:
[1] = target: His6-tagged full-length gp24 (tail fiber protein of myocyanophage Pam3) (cyanophage Pam3); experiment: SEC-MALS; Superdex 200 Increase 10/300 GL in 20 mM Tris-HCl pH 7.0, 100 mM NaCl, 7 mM beta-mercaptoethanol; 1 mg/mL, 100 uL
[2] = target: His6-tagged full-length gp24 (tail fiber protein of myocyanophage Pam3) (cyanophage Pam3); experiment: SEC; individually expressed His-gp24 or His-gp25; Superdex 200 Increase 10/300 column; peaks analysed by SDS-PAGE
[3] = target: His6-tagged full-length gp24 (tail fiber protein of myocyanophage Pam3) (cyanophage Pam3); experiment: SDS-PAGE of samples that were not boiled; purified protein treated with beta-mercaptoethanol, not boiled
[4] = target: His6-tagged full-length gp24 (tail fiber protein of myocyanophage Pam3) (cyanophage Pam3); experiment: SEC; His-gp24 co-expressed with untagged gp25 in E. coli, purified by Ni-NTA; Superdex 200 Increase 10/300 column; peaks analysed by SDS-PAGE
[5] = target: His6-tagged full-length gp25 (tail fiber chaperone of myocyanophage Pam3), expressed alone (cyanophage Pam3); experiment: SEC; individually expressed His-gp24 or His-gp25; Superdex 200 Increase 10/300 column; peaks analysed by SDS-PAGE

“gp25 (tail fiber chaperone of myocyanophage Pam3), untagged, co-expressed with His-gp24 (natural protein)” was tested, and the stoichiometry N (gp25 per gp24 (3:3)) [1] was 1.
For “His6-tagged full-length gp24 (tail fiber protein of myocyanophage Pam3) (natural protein)”, the stoichiometry N [2] was 3, the stoichiometry N [3] was 3 and the stoichiometry N [4] was 3. The stoichiometry N [1] was 3.
Work on “His6-tagged full-length gp25 (tail fiber chaperone of myocyanophage Pam3), expressed alone (natural protein)” yielded a stoichiometry N [5] of 3.

Source: PMC9608196
